± gives the uncertainty stated by the source.
B1: Transitional endoplasmic reticulum ATPase, residues 26 to 106; numbered along this chain, P55072 (parent)
chain: LIVDEAINEDNSVVSLSQPKMDELQLFRGDTVLLKGKKRREAVCIVLSDDTCSDEKIRMNRVVRNNLRVRLGDVISIQPCP

Variants of: B1
Assay: abundance fitness (aPCA) (normalised: wild type 0, dead -1); higher = more abundant; growth selection in yeast, the domain comes from the species named
Details: Homo sapiens

Point of comparison: D22W, abundance fitness -0.281 ± 0.057. Against it:
- K37I — within error, -0.182 ± 0.15
- K37L — higher, -0.018 ± 0.082
- K37M — higher, 0.156 ± 0.31
- K37A — within error, -0.222 ± 0.12
- K37S — higher, 0.03 ± 0.042
- K37R — higher, 0.028 ± 0.076
- K37F — within error, -0.124 ± 0.14
- K37W — within error, -0.183 ± 0.1
- K37E — higher, -0.035 ± 0.12
- K37P — higher, -0.118 ± 0.097
- K37C — within error, -0.226 ± 0.1
- K37G — higher, -0.05 ± 0.06
- K37N — within error, -0.143 ± 0.32
- K37T — within error, -0.072 ± 0.21
- K37D — within error, -0.126 ± 0.17
- D30G — higher, -0.107 ± 0.041
- D30N — within error, -0.176 ± 0.088
- D30R — within error, -0.258 ± 0.05
- D30E — higher, 0.108 ± 0.087
- D30Y — lower, -0.732 ± 0.2
- D30Q — higher, 0.103 ± 0.1
- D30I — lower, -0.68 ± 0.29
- D30H — within error, -0.11 ± 0.12
- D30T — higher, -0.051 ± 0.068
- D30F — within error, -0.638 ± 0.32
- D30K — within error, -0.257 ± 0.093
- D30C — higher, 0.035 ± 0.12
- D30S — within error, -0.175 ± 0.064
- D30M — higher, -0.047 ± 0.1
- D30L — lower, -0.468 ± 0.07
- D30W — within error, -0.286 ± 0.079
- D30A — higher, 0.005 ± 0.063
- F27M — higher, -0.045 ± 0.077
- F27N — higher, -0.022 ± 0.12
- F27D — higher, 0.069 ± 0.1
- F27H — higher, 0.028 ± 0.099
- F27L — higher, 0.026 ± 0.052
- F27A — higher, 0.042 ± 0.048
- F27R — higher, 0.009 ± 0.057
- F27E — higher, 0.095 ± 0.081
- F27G — higher, 0.016 ± 0.05
- F27Q — higher, -0.098 ± 0.1
- F27V — higher, 0.044 ± 0.048
- F27S — higher, 0.085 ± 0.045
- F27K — higher, -0.023 ± 0.092
- F27T — higher, 0.127 ± 0.06
- F27C — higher, 0.045 ± 0.076
- F27W — higher, -0.101 ± 0.06
- F27P — within error, -0.238 ± 0.084
- F27I — higher, -0.04 ± 0.062
- F27Y — higher, -0.109 ± 0.075
- D22N — higher, -0.036 ± 0.069
- D22Y — higher, -0.067 ± 0.088
- D22P — lower, -0.862 ± 0.18
- D22G — higher, -0.101 ± 0.046
- D22A — higher, -0.109 ± 0.05
- D22C — higher, -0.083 ± 0.051
- D22K — higher, -0.063 ± 0.083
- D22V — higher, -0.049 ± 0.054
- D22I — higher, -0.118 ± 0.085
- D22F — higher, -0.1 ± 0.063
- D22L — higher, -0.008 ± 0.048
- D22T — higher, -0.037 ± 0.063
- D22Q — higher, 0.023 ± 0.092
- D22M — higher, -0.06 ± 0.066
- D22R — higher, -0.015 ± 0.04
- D22E — higher, -0.038 ± 0.059
- D22S — higher, -0.084 ± 0.05
- K38Q — higher, -0.051 ± 0.16
- K38E — higher, -0.09 ± 0.11
- K38L — higher, 0.019 ± 0.081
- K38V — higher, -0.153 ± 0.067
- K38T — higher, 0.033 ± 0.11
- K38H — within error, -0.05 ± 0.18
- K38G — higher, 0.025 ± 0.067
- K38M — higher, -0.018 ± 0.12
- K38S — higher, -0.097 ± 0.092
- K38I — within error, -0.282 ± 0.15
- K38W — higher, -0.011 ± 0.14
- K38N — higher, 0.186 ± 0.28
- K38D — within error, -0.11 ± 0.15
- K38R — higher, -0.024 ± 0.077
- K38F — within error, -0.079 ± 0.2
- K38C — within error, -0.225 ± 0.18
- K38A — higher, 0.02 ± 0.076
- K38Y — within error, -0.088 ± 0.14
- R28C — higher, 0.053 ± 0.15
- R28Q — higher, -0.008 ± 0.066
- R28H — higher, 0.226 ± 0.17
- R28T — higher, 0.034 ± 0.069
- R28M — higher, 0.011 ± 0.092
- R28E — higher, 0.094 ± 0.056
- R28S — higher, -0.009 ± 0.055
- R28N — higher, 0.093 ± 0.14
- R28P — higher, -0.012 ± 0.068
- R28I — higher, -0.061 ± 0.1
- R28L — higher, 0.012 ± 0.059
- R28K — higher, 0.064 ± 0.069
- R28A — higher, 0.085 ± 0.06
- R28G — higher, -0.027 ± 0.052
- R28F — within error, -0.401 ± 0.31
- R28V — higher, 0.021 ± 0.067
- G29W — within error, -0.268 ± 0.062
- G29P — lower, -1.06 ± 0.28
- G29R — within error, -0.197 ± 0.056
- G29A — within error, -0.203 ± 0.06
- G29Q — higher, -0.104 ± 0.049
- G29N — higher, -0.03 ± 0.11
- G29S — higher, -0.109 ± 0.062
- G29F — within error, -0.157 ± 0.098
- G29V — lower, -0.612 ± 0.098
- G29M — higher, -0.098 ± 0.12
- G29H — higher, 0.059 ± 0.17
- G29T — within error, -0.391 ± 0.092
- G29E — within error, -0.198 ± 0.063
- G29L — within error, -0.209 ± 0.061
- G29C — within error, -0.259 ± 0.1
- G29D — within error, -0.172 ± 0.097
- Q25E — within error, -0.156 ± 0.081
- Q25V — within error, -0.202 ± 0.052
- Q25P — lower, -1 ± 0.18
- Q25K — higher, -0.013 ± 0.076
- Q25C — higher, 0.006 ± 0.073
- Q25T — higher, -0.102 ± 0.062
- Q25L — higher, -0.149 ± 0.046
- Q25N — higher, 0.038 ± 0.098
- Q25R — higher, -0.081 ± 0.053
- Q25S — higher, 0.027 ± 0.056
- Q25M — higher, -0.106 ± 0.091
- Q25D — higher, 0.048 ± 0.094
- Q25Y — lower, -0.485 ± 0.14
- Q25I — higher, -0.043 ± 0.081
- Q25G — higher, -0.045 ± 0.05
- Q25H — within error, -0.168 ± 0.15
- Q25A — higher, -0.116 ± 0.052
- Q25W — within error, -0.256 ± 0.11
- Q25F — within error, -0.129 ± 0.096
- R39K — higher, -0.041 ± 0.11
- R39E — higher, 0.056 ± 0.073
- R39A — higher, -0.001 ± 0.06
- R39N — within error, -0.17 ± 0.11
- R39F — higher, -0.007 ± 0.12
- R39C — higher, 0.034 ± 0.13
- R39D — higher, 0.008 ± 0.12
- R39Q — higher, 0.079 ± 0.12
- R39I — within error, -0.082 ± 0.17
- R39G — higher, 0.008 ± 0.045
- R39T — higher, 0.013 ± 0.1
- R39M — within error, -0.142 ± 0.12
- R39L — higher, -0.054 ± 0.061
- R39W — higher, -0.08 ± 0.094
- R39S — higher, 0.016 ± 0.05
- R39P — higher, -0.079 ± 0.096
- R39Y — within error, -0.136 ± 0.1
- G36I — lower, -0.545 ± 0.2
- G36Y — within error, -0.186 ± 0.12
- G36F — within error, -0.135 ± 0.092
- G36A — higher, -0.041 ± 0.036
- G36S — higher, -0.026 ± 0.07
- G36T — higher, -0.042 ± 0.096
- G36E — within error, -0.191 ± 0.15
- G36Q — lower, -0.688 ± 0.18
- G36K — within error, -0.423 ± 0.15
- G36N — higher, 0.058 ± 0.13
- G36C — higher, 0.015 ± 0.083
- G36L — lower, -0.757 ± 0.099

From the Human Domainome abundance scans (Beltran et al. 2025)
